According to paper PMC4148193, “Chromatin Insulator Factors Involved in Long-Range DNA Interactions and Their Role in the Folding of the Drosophila Genome” (PLoS Genetics, 2014):
One block for each binder: values may come before it.

Tests used:
CP190 = target: T1, CP190 (Drosophila, UniProt Q24478 1-1096); experiment: fluorescence anisotropy; Hill n=2±0.3; 20 uM ZnSO4; FA/FCS: 30 mM Tris/HCl pH 7.5, 100 mM NaCl, 20 uM ZnSO4, 5 mM mercaptoethanol, 0.01 mg/ml BSA, 0.004% Tween20, 2.5 nM DNA; EMSA: 150 mM NaCl, 30 mM Tris/HCl pH; conditions: protein: recombinant; tags: N-term 6xHis; blunt
T1 sequence: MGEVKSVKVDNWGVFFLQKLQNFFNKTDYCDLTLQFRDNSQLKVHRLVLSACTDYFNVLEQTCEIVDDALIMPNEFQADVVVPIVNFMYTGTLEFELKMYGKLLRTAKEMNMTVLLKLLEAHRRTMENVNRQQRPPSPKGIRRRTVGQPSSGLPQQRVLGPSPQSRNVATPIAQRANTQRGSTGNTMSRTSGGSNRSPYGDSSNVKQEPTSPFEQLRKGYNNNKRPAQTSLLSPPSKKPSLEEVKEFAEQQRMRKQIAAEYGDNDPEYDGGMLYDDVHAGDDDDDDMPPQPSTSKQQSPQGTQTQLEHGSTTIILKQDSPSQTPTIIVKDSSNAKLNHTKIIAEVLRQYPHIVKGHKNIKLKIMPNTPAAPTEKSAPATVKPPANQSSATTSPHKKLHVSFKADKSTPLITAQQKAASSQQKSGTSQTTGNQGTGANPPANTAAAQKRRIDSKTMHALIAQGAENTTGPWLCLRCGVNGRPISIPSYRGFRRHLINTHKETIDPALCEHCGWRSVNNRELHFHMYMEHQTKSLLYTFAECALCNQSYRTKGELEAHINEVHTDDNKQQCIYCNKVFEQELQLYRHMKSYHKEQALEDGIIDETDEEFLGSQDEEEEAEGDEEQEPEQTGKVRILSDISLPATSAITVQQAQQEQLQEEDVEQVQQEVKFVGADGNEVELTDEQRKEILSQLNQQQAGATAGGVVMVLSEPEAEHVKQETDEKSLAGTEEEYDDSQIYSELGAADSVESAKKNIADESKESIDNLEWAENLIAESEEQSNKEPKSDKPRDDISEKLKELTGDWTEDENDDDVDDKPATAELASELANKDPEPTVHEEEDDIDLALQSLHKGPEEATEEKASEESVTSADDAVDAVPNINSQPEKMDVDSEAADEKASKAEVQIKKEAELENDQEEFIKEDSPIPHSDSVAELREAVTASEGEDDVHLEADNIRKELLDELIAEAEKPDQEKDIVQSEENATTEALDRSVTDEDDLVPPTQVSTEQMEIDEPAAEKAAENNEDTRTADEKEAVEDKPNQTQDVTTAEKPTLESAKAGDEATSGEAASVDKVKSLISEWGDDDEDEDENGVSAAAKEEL

BEAF32 (BEAF32B) = target: T2, BEAF32 (BEAF32B) (Drosophila, UniProt Q94513 1-282); experiment: fluorescence anisotropy; single-site fit; 20 uM ZnSO4; FA/FCS: 30 mM Tris/HCl pH 7.5, 100 mM NaCl, 20 uM ZnSO4, 5 mM mercaptoethanol, 0.01 mg/ml BSA, 0.004% Tween20, 2.5 nM DNA; EMSA: 150 mM NaCl, 30 mM Tris/HCl pH; conditions: protein: recombinant; tags: N-term MBP; C-term 6xHis; blunt
T2 sequence: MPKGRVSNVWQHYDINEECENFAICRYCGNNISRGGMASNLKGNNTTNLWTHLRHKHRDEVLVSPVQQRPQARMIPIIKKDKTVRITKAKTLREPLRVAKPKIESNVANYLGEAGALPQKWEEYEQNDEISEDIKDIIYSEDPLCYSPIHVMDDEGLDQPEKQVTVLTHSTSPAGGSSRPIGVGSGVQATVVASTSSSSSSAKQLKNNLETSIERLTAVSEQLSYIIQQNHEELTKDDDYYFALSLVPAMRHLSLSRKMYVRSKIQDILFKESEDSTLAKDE

[1] = target: the molecule itself; experiment: SEC; gel-filtration analysis of CP190-BTB/POZ; conditions not shown
[2] = target: T3, Chromator, full-length, His-tagged (Drosophila, UniProt Q86BS3 1-926); experiment: fluorescence polarisation; fluorescence anisotropy of CP190-BTB/POZ-Cy5 as reporter of Chromator binding; apparent affinity; conditions: both partners purified
T3 construct: Chromator (Chriz), Drosophila; amplified from S2 cell cDNA; also called Chriz; source: E. coli BL21 (DE3)-pLysS, purified
T3 sequence (looked up): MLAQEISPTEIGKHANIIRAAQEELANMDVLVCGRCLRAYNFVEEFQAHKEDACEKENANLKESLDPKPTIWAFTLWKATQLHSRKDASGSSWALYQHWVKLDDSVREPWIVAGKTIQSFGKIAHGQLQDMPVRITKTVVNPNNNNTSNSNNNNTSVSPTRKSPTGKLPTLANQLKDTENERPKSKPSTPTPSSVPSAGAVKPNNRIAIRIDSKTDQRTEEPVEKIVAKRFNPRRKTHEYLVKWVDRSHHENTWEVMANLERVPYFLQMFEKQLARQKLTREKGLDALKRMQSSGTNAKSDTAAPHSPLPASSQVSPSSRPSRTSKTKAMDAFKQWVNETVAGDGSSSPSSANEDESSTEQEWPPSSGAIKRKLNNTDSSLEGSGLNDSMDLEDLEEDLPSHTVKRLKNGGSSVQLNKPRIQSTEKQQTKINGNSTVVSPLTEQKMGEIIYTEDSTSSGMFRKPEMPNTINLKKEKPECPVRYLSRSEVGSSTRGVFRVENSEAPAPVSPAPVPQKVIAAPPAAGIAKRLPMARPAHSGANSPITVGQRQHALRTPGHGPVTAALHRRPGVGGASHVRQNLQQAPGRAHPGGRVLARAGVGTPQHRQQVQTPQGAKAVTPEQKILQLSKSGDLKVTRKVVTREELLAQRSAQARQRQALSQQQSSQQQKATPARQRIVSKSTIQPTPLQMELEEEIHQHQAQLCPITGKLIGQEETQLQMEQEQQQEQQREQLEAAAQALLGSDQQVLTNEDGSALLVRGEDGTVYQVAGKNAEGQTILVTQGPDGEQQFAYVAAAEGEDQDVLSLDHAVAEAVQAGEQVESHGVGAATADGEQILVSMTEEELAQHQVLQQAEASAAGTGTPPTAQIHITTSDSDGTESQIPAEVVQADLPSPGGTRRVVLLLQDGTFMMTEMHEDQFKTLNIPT

B1: DNANS (dsDNA)
DNA 1: GGACAGGTATTGTGCCATACTGACCACATCGTCTTGGTCTATAAGCTCCACGACATCC
DNA 2: GGATGTCGTGGAGCTTATAGACCAAGACGATGTGGTCAGTATGGCACAATACCTGTCC
- Kd (CP190): 109 ± 5 nM
- Kd (BEAF32 (BEAF32B)): 165 ± 30 nM

B2: CP190-BTB/POZ (BTB/POZ domain of CP190), His-tagged (domain or fragment, Drosophila)
chain: MGEVKSVKVDNWGVFFLQKLQNFFNKTDYCDLTLQFRDNSQLKVHRLVLSACTDYFNVLEQTCEIVDDALIMPNEFQADVVVPIVNFMYTGTLEFELKMYGKLLRTAKEMNMTVLLKLLEAHRRTMENVNRQQR
notes: N-terminal BTB/POZ domain of CP190, Drosophila; source: E. coli BL21 (DE3)-pLysS, purified
- stoichiometry N [1]: 2

- Kd [2]: ~50 nM
B3: CP190-BTB/POZ-Cy5 (CP190-BTB/POZ Cy5-labelled on its N-terminal) (domain or fragment, Drosophila)
chain: MGEVKSVKVDNWGVFFLQKLQNFFNKTDYCDLTLQFRDNSQLKVHRLVLSACTDYFNVLEQTCEIVDDALIMPNEFQADVVVPIVNFMYTGTLEFELKMYGKLLRTAKEMNMTVLLKLLEAHRRTMENVNRQQR
modifications: Cy5 on the N-terminal
notes: N-terminal BTB/POZ domain of CP190, Drosophila; same construct as m4, labelled with Cy5; Same protein as m4 with a Cy5 label; source: E. coli BL21 (DE3)-pLysS, purified
